Assay [1] addresses SIRPα-αMSLN^M4F5 local inhibitory checkpoint monoclonal antibody (LicMAb). Nature of the assay: flow cytometry on cells; binding to SUIT-2-MSLN cells in the presence of 2.5 µM rhMSLN as competitor (Supplementary Figure S6b, c). In general terms: A flow cytometer gives signals particle by particle.
Assay [2] shares this target. Nature of the assay: flow cytometry on cells; binding to SUIT-2-MSLN cells in the presence of saturating concentrations of soluble MSLN (Supplementary Figure S7a).

Take “recombinant human MSLN (rhMSLN) (from UniProt Q13421 37-598) (natural protein)”: the percent reduction of the binding of m2 to SUIT-2-MSLN cells by 2.5 µM rhMSLN in assay [1] worked out at 40%. In assay [2], the percent reduction of the binding of m2 to SUIT-2-MSLN cells by saturating soluble MSLN worked out at 53%.

(Values after paper PMC12098241.)
